Columns and labels:
GST-DDB1 [1] = molecular target: GST-DDB1 (UniProt Q16531); experiment: AlphaScreen or HTRF; TR-FRET competition; 3 nM coexpressed His-HBx:GST-DDB1 complex preincubated with increasing untagged competitor 1 h at room temperature; Eu-cryptate anti-His and d2 anti-GST antibodies; 20 mM HEPES pH 7.2, 50 mM NaCl, 0.1 mg/ml BSA, 0.01% Brij-35, 0.5 mM TCEP
DDB1 = DDB1 (UniProt Q16531); experiment: AUC; sedimentation velocity at 20 C, absorbance at 280 nm, c(s) distribution (SEDFIT), each protein in its final storage buffer
GST-DDB1 [2] = molecular target: GST-DDB1 (UniProt Q16531); experiment: AlphaScreen or HTRF; TR-FRET competition; 5 nM His-HBx and 5 nM GST-DDB1 expressed separately, preincubated with increasing untagged competitor 30 min at room temperature; Eu-cryptate anti-His and d2 anti-GST antibodies; 25 mM HEPES pH 7.2, 400 mM NaCl, 0.1 mg/ml BSA, 0.01% Brij-35, 0.5 mM TCEP
[3] = molecular target: His-HBx expressed alone (detergent solubilized) (hepatitis B virus (genotype D)) (UniProt P03165); experiment: as above
[4] = molecular target: His-HBx coexpressed with GST-DDB1 (hepatitis B virus (genotype D)) (UniProt P03165); experiment: AlphaScreen or HTRF; TR-FRET competition; 3 nM coexpressed His-HBx:GST-DDB1 complex preincubated with increasing untagged competitor 1 h at room temperature; Eu-cryptate anti-His and d2 anti-GST antibodies; 20 mM HEPES pH 7.2, 50 mM NaCl, 0.1 mg/ml BSA, 0.01% Brij-35, 0.5 mM TCEP
GST-DDB1 [5] = molecular target: T1, GST-DDB1 (UniProt Q16531 1-1140); experiment: AlphaScreen or HTRF; TR-FRET competition; 5 nM His-HBx and 5 nM GST-DDB1 expressed separately, preincubated with increasing untagged competitor 30 min at room temperature; Eu-cryptate anti-His and d2 anti-GST antibodies; 25 mM HEPES pH 7.2, 400 mM NaCl, 0.1 mg/ml BSA, 0.01% Brij-35, 0.5 mM TCEP; details: both partners purified
T1 construct: also called glutathione S-transferase (GST)-DDB1; not shown: GST, N-terminal, kept

GST-DDB1 [6] = molecular target: T1, GST-DDB1; experiment: AlphaScreen or HTRF; TR-FRET competition; 3 nM coexpressed His-HBx:GST-DDB1 complex preincubated with increasing untagged competitor 1 h at room temperature; Eu-cryptate anti-His and d2 anti-GST antibodies; 20 mM HEPES pH 7.2, 50 mM NaCl, 0.1 mg/ml BSA, 0.01% Brij-35, 0.5 mM TCEP; details: both partners purified

## HBx H-box peptide (R96E mutant) (from UniProt P03165 88-102) (peptide; other documents disagree on this pair)
GST-DDB1 [1]
  IC50: > 100000 nM

## HBx coexpressed with DDB1 (HBx:DDB1 coexpressed complex) (from UniProt P03165 1-154) (natural protein)
DDB1
  stoichiometry N: 1

## recombinant untagged HBx (from UniProt P03165 1-154) (natural protein)
GST-DDB1 [2]
  IC50: 61 nM
GST-DDB1 [1]
  IC50: 9 nM

## DDB1 (from UniProt Q16531 1-1140) (natural protein)
[3]
  IC50: 204 nM
[4]
  IC50: 16 nM

B1: SV5-V (natural protein)
chain: MDPTDLSFSPDEINKLIETGLNTVEYFTSQQVTGTSSLGKNTIPPGVTGLLTNAAEAKIQESTNHQKGSVGGGAKPKKPRPKIAIVPADDKTVPGKPIPNPLLGLDSTPSTQTVLDLSGKTLPSGSYKGVKLAKFGKENLMTRFIEEPRENPIATSSPIDFKRGRDTGGFHRREYSIGWVGDEVKVTEWCNPSCSPITAAARRFECTCHQCPVTCSECERDT
notes: also called V protein of paramyxovirus SV5; source: E. coli Rosetta, purified (glutathione agarose, thrombin cleavage, MonoQ, Superdex 75); not shown: GST, N-terminal, cleaved
GST-DDB1 [5]
  IC50: 7 nM
GST-DDB1 [6]
  IC50: 4 nM

## ILPKVLHKRTLGLSA [HBx H-box peptide (wild type)]
GST-DDB1 [5]
  IC50: 5000 nM
GST-DDB1 [6]
  IC50: 1560 nM

Reference: PMC6675892, “Hepatitis B Virus X Protein Function Requires Zinc Binding” (Journal of Virology, 2019)
